Test system: T1, BsrR (Enterococcus faecium NW2), ORF:b1c0129b
T1 sequence: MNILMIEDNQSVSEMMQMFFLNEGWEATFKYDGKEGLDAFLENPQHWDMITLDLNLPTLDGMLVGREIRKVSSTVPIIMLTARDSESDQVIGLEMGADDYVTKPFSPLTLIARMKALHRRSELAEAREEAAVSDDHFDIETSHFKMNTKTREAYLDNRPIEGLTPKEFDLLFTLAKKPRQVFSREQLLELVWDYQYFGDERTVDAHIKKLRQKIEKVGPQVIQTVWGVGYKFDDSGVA
Experiment: EMSA

Sequence: AAATAAAACTCCTTTTTTATTGGAATAAGTTTATCTTAACAAAGAATGAACAAAAGACAAACCTTTCGTGAAGAATTCCTGAACATATTGGTTCAGTCAACAATTTAGAGTATACTATAAGAAGAGAATTTAGGAGGGAAAGA (double strand) [bsrX upstream intergenic region, 143 bp]
- binding: binds
